Reference: publication doi:10.1101/2024.10.04.616518

Columns and labels:
[1] = biological target: ixochymostatin (Ixodes scapularis); test: SPR
[2] = biological target: bovine pancreatic chymotrypsin (bovine); test: enzyme inhibition kinetics

ixochymostatin (natural protein), sequence (B7PCV3 21-91): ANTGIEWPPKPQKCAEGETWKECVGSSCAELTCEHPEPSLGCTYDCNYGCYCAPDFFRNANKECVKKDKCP
ixochymostatin (Ixodes scapularis), sequence (B7PCV3 21-91): as above

Substance | Kd [1] | koff [1] | kon [1] | Ki [2] | Ki^app (Morrison equation) [2] | apparent Ki (Ki^app), from IC50 against protease concentration [2]
bovine pancreatic chymotrypsin (enzyme) | 0.076 nM | 1.2e-05 s⁻¹ | 160000 M⁻¹ s⁻¹ | – | – | –
ixochymostatin (natural protein) | – | – | – | 0.14 nM | 0.81 nM | 16 nM
